# Test results from patent US20230183349A1.
# Biological target: PD1 aglycosylated at Asn58 (human) (UniProt Q15116)
# Experiment: SPR Biacore T200, antibody captured by anti-human IgG, PD1-ECD as analyte, 25 °C, 1:1 Langmuir
binder,measurement,value
"PD1-0103-0312 (antibody, V domains shown) VH: EVQLLESGGGLVQPGGSLRLSCAASGFSFSSYTMSWVRQAPGKGLEWVATISGGGRDIYYPDSVKGRFTISRDNSKNTLYLQMNSLRAEDTAVYYCVLLTGRVYFALDSWGQGTLVTVSS VL: DIVMTQSPDSLAVSLGERATINCKASESVDTSDNSFIHWYQQKPGQSPKLLIYRSSTLESGVPDRFSGSGSGTDFTLTISSLQAEDVAVYYCQQNYDVPWTFGQGTKVEIK",Kd,80.2 nM
same,koff,0.027 s⁻¹
same,kon,336000 M⁻¹ s⁻¹
